Measurements: patent US20090092602A1 (published 2009)

Columns and labels:
[1] = biological target: T1, lipidated recombinant human tissue factor (Innovin) (human, UniProt P13726 33-295, limits assumed); test: cell-based or functional assay
[2] = biological target: T1, lipidated recombinant human tissue …; test: cell-based or functional assay; remark: listed apart in the source
[3] = biological target: T2, recombinant human tissue factor (human, UniProt P13726 33-251, limits assumed); test: SPR (BIAcore), recombinant human TF immobilized on CM5 chip, antibody 0.125-1 nM; apparent Ka
T2 construct: also called TF; human TF
Experimental: (§1) The affinity of humanized anti-TF antibody for TF was determined by surface plasmon resonance (BIAcore from Pharmacia Biosensor) with recombinant human tissue factor covalently immobilized on a CM5 sensor chip.

[4] = biological target: T2, recombinant human tissue factor; test: SPR (BIAcore), recombinant human TF immobilized on CM5 chip, antibody 0.125-1 nM; apparent Kd
Experimental: as §1

| Binder | inhibition of TF function in PT assay at above 12.9 nM antibody [1] [%] | PT Time (in seconds) at 12.9 nM antibody (12.2 s at 0 nM) [2] [s] | PT Time (in seconds) at 25.8 nM antibody (12.2 s at 0 nM) [2] [s] | PT Time (in seconds) at 51.6 nM antibody (12.2 s at 0 nM) [2] [s] | Ka [3] [M⁻¹] | Kd [4] [nM] |
| --- | --- | --- | --- | --- | --- | --- |
| hOAT (humanized IgG One Anti-Tissue Factor antibody) (antibody) heavy: not shown light: DIQMTQSPASLSASVGDRVTITCLASQTIDTWLAWYLQKPGKSPQLLIYAATNLADGVPSRFSGSGSGTDFSFTISSLQPEDFATYYCQQVYSSPFTFGQGTKLEIKRTVAAPSVFIFPPSDEQLKSGTASVVCLLNNFYPREAKVQWKVDNALQSGNSQESVTEQDSKDSTYSLSSTLTLSKADYEKHKVYACEVTHQGLSSPVTKSFNRGEC | ~95 | 18.9 | 33.7 | 82.1 | – | – |
| hFAT (humanized IgG Four Anti-Tissue Factor antibody) (antibody, also called humanized cH36-IgG4; HC08 + LC09 IgG4 kappa) heavy: not shown light: DIQMTQSPASLSASVGDRVTITCLASQTIDTWLAWYLQKPGKSPQLLIYAATNLADGVPSRFSGSGSGTDFSFTISSLQPEDFATYYCQQVYSSPFTFGQGTKLEIKRTVAAPSVFIFPPSDEQLKSGTASVVCLLNNFYPREAKVQWKVDNALQSGNSQESVTEQDSKDSTYSLSSTLTLSKADYEKHKVYACEVTHQGLSSPVTKSFNRGEC | ~95 | 20.5 | 41.7 | 94.8 | 2.99e+09 | 0.335 |
| cH36 chimeric anti-tissue factor antibody (antibody, human IgG4, V domains shown, Mouse-human chimera; also called Sunol-cH36; chimeric H36) VH: EIQLQQSGPELVKPGASVQVSCKTSGYSFTDYNVYWVRQSHGKSLEWIGYIDPYNGITIYDQNFKGKATLTVDKSSTTAFMHLNSLTSDDSAVYFCARDVTTALDFWGQGTTLTVSS VL: DIQMTQSPASQSASLGESVTITCLASQTIDTWLAWYQQKPGKSPQLLIYAATNLADGVPSRFSGSGSGTKFSFKISSLQAEDFVNYYCQQVYSSPFTFGAGTKLELK | ~95 | 19.8 | 40 | 101 | 7.94e+09 | 0.126 |
| H36.D2.B7 murine anti-tissue factor monoclonal antibody (antibody, mouse IgG2a, V domains shown) VH: EIQLQQSGPELVKPGASVQVSCKTSGYSFTDYNVYWVRQSHGKSLEWIGYIDPYNGITIYDQNFKGKATLTVDKSSTTAFMHLNSLTSDDSAVYFCARDVTTALDFWGQGTTLTVSS VL: DIQMTQSPASQSASLGESVTITCLASQTIDTWLAWYQQKPGKSPQLLIYAATNLADGVPSRFSGSGSGTKFSFKISSLQAEDFVNYYCQQVYSSPFTFGAGTKLELK | – | – | – | – | 1.56e+10 | 0.064 |
